Source: the supplement of paper PMC9170038

System: MS2 coat protein
Experiment: apparent KD of MS2 coat protein; designed switch direction (-1 OFF switch, 1 ON switch): -1; higher = weaker reporter binding
Procedure, shortened: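 Apparent KD, taken as the median over clusters for each design, was obtained by curve-fitting normalised cluster fluorescence. Designed RNA switches had been transcribed on Illumina chips by stalled E. coli RNA polymerase and titrated with SNAP-549-labelled MS2 coat protein, doubling from 0.7 or 1.5 nM to 3 µM.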

[1] = Eterna round: R95, input ligand: microRNA oligo, concentration not stated
[2] = input ligand: microRNA oligo, concentration not stated
[3] = Eterna round: R95, input ligand: FMN 200 uM
[4] = Eterna round: R95, input ligand: none

Sequence: UUCCUCGUUGUGAGGAUAUCGUCCUAUUUUUGUUACGAGAAGGCACAUGAGGAUCACCCAUGUUACUUGAUGUU [JR_BMOE4_Sub071] (puzzle: Brourd's mod of Exclusion 4)
- apparent KD of MS2 coat protein [1]: 21.2 nM

Sequence: UUCGUGCAGCUUUGCUGUACGCGUACAUGAGGAUCACCCAUGUAGGAUAUGGUAGGCUUUGCUUACUAGAAGGAUAUGGUGAGC [JL EXNG3 1.33] (Eterna round: R96, puzzle: Exclusion NG 3)
- apparent KD of MS2 coat protein (input ligand: FMN 200 uM): 85.6 nM
- apparent KD of MS2 coat protein [2]: 37.2 nM
- apparent KD of MS2 coat protein (input ligand: none): 36.1 nM

Sequence: UUCUUGGCAGGAUAUGCUCUCUUAGACAUGAGGAUCACCCAUGUGUUCAUUCUUUCUUUUGCAGAAGGGCCUUAAU [JR_E5_Sub045] (puzzle: Exclusion 5)
- apparent KD of MS2 coat protein [1]: 52.6 nM

Sequence: UUCUUGGCAGGAUAUGCUUUUUUAGACAUGAGGAUCACCCAUGUGUUUAUUUUUUUUUUUGCAGAAGGGCCUUAAU [JR_E5_Sub043] (puzzle: Exclusion 5)
- apparent KD of MS2 coat protein [1]: 26.9 nM

Sequence: UUGAGUCGGAAGGAUAUGCGAGCCGCCGGGUCAGCAGAAGGUCCGACAUGAGGAUCACCCAUGUUGGGCGAGGA [EX6 B.10] (Eterna round: R97, puzzle: Exclusion 6)
- apparent KD of MS2 coat protein (input ligand: FMN 200 uM): 351 nM
- apparent KD of MS2 coat protein (input ligand: none): 25.2 nM

Sequence: UUGAUGUCAUCAGGAUAUAGUAUUUAAGACAUAUCUUCUUUCAAACAUGAGGAUCACCCAUGUCGCUAGAAGGGAUUAUUGAUU [JR_ExcNG2_Sub083] (Eterna round: R96, puzzle: Exclusion NG 2)
- apparent KD of MS2 coat protein [2]: 11.4 nM

Sequence: UUGAUUGGUGUAGGAUAUGUAUGAGGAUCACCCAUUAAUAAAUUUUAACCACGAGGAUCACCCGUGUAGAAGGACAUUGGUCAA [pwkr exNG2 2xF5 1xFMN.19] (Eterna round: R96, puzzle: Exclusion NG 2)
- apparent KD of MS2 coat protein (input ligand: FMN 200 uM): 33.1 nM
- apparent KD of MS2 coat protein [2]: 23.5 nM
- apparent KD of MS2 coat protein (input ligand: none): 38.4 nM

Sequence: UUGAUUGGUGUAGGAUAUGUAUGAGGAUCACCCAUUAAUAAAUUUUAACCACGAGGAUCACCCGUGUAGAAGGACAUUGGUUAU [pwkr exNG2 2xF5 1xFMN.21] (Eterna round: R96, puzzle: Exclusion NG 2)
- apparent KD of MS2 coat protein (input ligand: FMN 200 uM): 51.9 nM
- apparent KD of MS2 coat protein [2]: 37.8 nM
- apparent KD of MS2 coat protein (input ligand: none): 59.3 nM

Sequence: UUGCCGCAAGGAUAUGCAGACAAGUACAAUACGUGUCUCGGACUUGAGGAUCACCCAAGUAGAAGGCUUUUUAU [LRO-Excl2-14-mod _r4_621 by salish99] (Eterna round: R97, puzzle: Exclusion 2)
- apparent KD of MS2 coat protein (input ligand: FMN 200 uM): 23.7 nM
- apparent KD of MS2 coat protein (input ligand: none): 21.4 nM

Sequence: UUGGAACGAGGAUAUCGAUGGUGGAACAUGAGGAUCACCCAUGUAUGAGAUAGUGUAGUUCGAGAAGGCGUUAAGU [JR_E5_Sub054] (puzzle: Exclusion 5)
- apparent KD of MS2 coat protein [3]: 24.1 nM
- apparent KD of MS2 coat protein [1]: 40.3 nM
- apparent KD of MS2 coat protein [4]: 48.9 nM

Sequence: UUGUAUAUCUAUGGGAGUAACAUGAGGAUCACCCAUGUAUGUCUUGUUUUUUGUUCGUCAUAGGCCAAUUGAAUGGU [JR_SV3TOV1_Sub026] (puzzle: Sensor v3, turn-off variant 1)
- apparent KD of MS2 coat protein [3]: 25.9 nM
- apparent KD of MS2 coat protein [1]: 34.5 nM
- apparent KD of MS2 coat protein [4]: 28.9 nM

Sequence: UUGUGAGGUGUAGGAUAUUGUUGUUGUUUUUAGCGAGAAGGACAUGAGGAUCACCCAUGUGUCGUGUUUUUUUUUUUUUUUUUU [simply blue] (Eterna round: R96, puzzle: Exclusion NG 1)
- apparent KD of MS2 coat protein (input ligand: FMN 200 uM): 78.9 nM
- apparent KD of MS2 coat protein [2]: 93.5 nM
- apparent KD of MS2 coat protein (input ligand: none): 59.1 nM

Sequence: UUGUUACAUGAGGAUCACCCAUGUGAGGAUAUGGUUCAGUAAUGUAAUGUAAAGUACUCCAGAAGGCACAUGUU [1st #27] (Eterna round: R97, puzzle: Exclusion 1)
- apparent KD of MS2 coat protein (input ligand: FMN 200 uM): 1510 nM
- apparent KD of MS2 coat protein (input ligand: none): 809 nM

Sequence: UUGUUAUAUGUAGGAUAUGCAUAUUAUUAUUAUGCAGAAGGACAUGAGGAUCACCCAUGUAUAUUAUUAUUAUAUAUUAUAUAU [Title] (Eterna round: R96, puzzle: Exclusion NG 1)
- apparent KD of MS2 coat protein [2]: 22.4 nM

Sequence: UUGUUAUAUGUAGGAUAUGCGUAUUAUUAUUAUGCAGAAGGACAUGAGGAUCACCCAUGUGUAUUAUUAUUAUAUAUUAUAUAU [Title] (Eterna round: R96, puzzle: Exclusion NG 1)
- apparent KD of MS2 coat protein (input ligand: FMN 200 uM): 41.3 nM
- apparent KD of MS2 coat protein [2]: 15.5 nM
- apparent KD of MS2 coat protein (input ligand: none): 21.1 nM

Sequence: UUGUUAUGUGUAGGAUAUGCAUAUUAUUAUUAUGCAGAAGGACAUGAGGAUCACCCAUGUGUAUUGUUAUUAUAUAUUAUAUAU [Title] (Eterna round: R96, puzzle: Exclusion NG 1)
- apparent KD of MS2 coat protein [2]: 17.1 nM

Sequence: UUGUUAUGUGUAGGAUAUGCGUAUUAUUAUUAUGCAGAAGGACAUGAGGAUCACCCAUGUGUAUUAUUAUUAUAUAUUAUAUAU [Title] (Eterna round: R96, puzzle: Exclusion NG 1)
- apparent KD of MS2 coat protein (input ligand: FMN 200 uM): 41.2 nM
- apparent KD of MS2 coat protein [2]: 20.4 nM
- apparent KD of MS2 coat protein (input ligand: none): 22 nM

Sequence: UUGUUAUGUGUAGGAUAUGCGUAUUAUUAUUAUGCAGAAGGACAUGAGGAUCACCCAUGUGUAUUGUUAUUAUAUAUUAUAUAU [Title] (Eterna round: R96, puzzle: Exclusion NG 1)
- apparent KD of MS2 coat protein (input ligand: FMN 200 uM): 32.1 nM
- apparent KD of MS2 coat protein [2]: 16 nM
- apparent KD of MS2 coat protein (input ligand: none): 21.9 nM

Sequence: UUGUUGUAUGUAGGAUAUGCAUAUUAUUAUUAUGCAGAAGGACAUGAGGAUCACCCAUGUAUGUUAUUAUUAUAUGUUAUGUGU [Title] (Eterna round: R96, puzzle: Exclusion NG 1)
- apparent KD of MS2 coat protein [2]: 32 nM

Sequence: UUGUUGUAUGUAGGAUAUGCAUAUUAUUAUUAUGCAGAAGGACAUGAGGAUCACCCAUGUAUGUUAUUAUUAUGUGUUAUGUGU [Title] (Eterna round: R96, puzzle: Exclusion NG 1)
- apparent KD of MS2 coat protein [2]: 33.9 nM

Sequence: UUUAAAAUUUCAAUCUUCGCUGGCAAACUUGCGCCAGCUACAUGAGGAUCACCCAUGUUUUUUGCCCGUCUUAUUCU [Inisti] (puzzle: Sensor v3, turn-off variant 2)
- apparent KD of MS2 coat protein [3]: 24.3 nM
- apparent KD of MS2 coat protein [1]: 170 nM
- apparent KD of MS2 coat protein [4]: 26.7 nM

Sequence: UUUAACAAGCCAGAUCCUCACAUGAGGAUCACCCAUGUGCUCGUCUGAUUUUGUACUAUCACGUUUGUGAUAGUGUU [Level Boss var2-07] (puzzle: Sensor v3, turn-off variant 1)
- apparent KD of MS2 coat protein [3]: 240 nM
- apparent KD of MS2 coat protein [1]: 19.1 nM
- apparent KD of MS2 coat protein [4]: 124 nM

Sequence: UUUAACAAGCCAGAUCCUCACAUGAGGAUCACCCAUGUGCUCGUCUGAUUUUGUACUAUCAUGUGAGUGAUAGUGUU [Level Boss var2-06] (Eterna round: R96, puzzle: Sensor v3, turn-off variant 1)
- apparent KD of MS2 coat protein (input ligand: FMN 200 uM): 200 nM
- apparent KD of MS2 coat protein [2]: 56.9 nM
- apparent KD of MS2 coat protein (input ligand: none): 205 nM

Sequence: UUUAACAAGCCAGAUCCUCACAUGAGGAUCACCCAUGUGCUCGUCUGAUUUUGUACUAUCAUGUGAGUGAUAGUGUU [Level Boss var2-06] (puzzle: Sensor v3, turn-off variant 1)
- apparent KD of MS2 coat protein [3]: 67.3 nM
- apparent KD of MS2 coat protein [1]: 24.7 nM
- apparent KD of MS2 coat protein [4]: 115 nM

Sequence: UUUAACAGAGGAUAUGCGAAUAAAUAAAACUUUUUUUUUUAACAUGAGGAUCACCCAUGUAGAAGGCUGAUAUU [Ex2 #23] (Eterna round: R97, puzzle: Exclusion 2)
- apparent KD of MS2 coat protein (input ligand: FMN 200 uM): 34.9 nM
- apparent KD of MS2 coat protein (input ligand: none): 29.9 nM

Sequence: UUUAACGAUGAGGAUAUAUGAUAUCAAAGCAUCAUAGAAGGCAUCACAUGAGGAUCACCCAUGUGAUCUUCUUU [Mat - Exclusion 6 - JL Mod - D29] (Eterna round: R97, puzzle: Exclusion 6)
- apparent KD of MS2 coat protein (input ligand: FMN 200 uM): 69.6 nM
- apparent KD of MS2 coat protein (input ligand: none): 16.6 nM

Sequence: UUUAAGGGAAUUAAGAUCACAUGAGGAUCACCCAUGUAUAUAUAGGAUAUCAGCUCGUGUAGAGCUGAGAAGGAUAUAUACAUA [ExNG3/6-A3] (Eterna round: R96, puzzle: Exclusion NG 3)
- apparent KD of MS2 coat protein (input ligand: FMN 200 uM): 101 nM
- apparent KD of MS2 coat protein [2]: 32.8 nM
- apparent KD of MS2 coat protein (input ligand: none): 132 nM

Sequence: UUUAAUUGUGACAUGGGUGACAUGAGGAUCACCCAUGUCACAAGCUUUUUGCUCGUCUUAUAAUUAACCCAUGUCAC [Stov1/13-A1] (Eterna round: R97, puzzle: Sensor, turn-off variant 1)
- apparent KD of MS2 coat protein (input ligand: FMN 200 uM): 25.6 nM
- apparent KD of MS2 coat protein (input ligand: none): 27.7 nM

Sequence: UUUAAUUUUUUUUUUUUACAAGCUUUUUGCUCGUCUUAUACAUGAGGAUCACCCAUGUGGGUAGAAGAUAAAUUAUC [JMF 6] (puzzle: Sensor v3, turn-off variant 2)
- apparent KD of MS2 coat protein [3]: 46.4 nM
- apparent KD of MS2 coat protein [1]: 81.8 nM
- apparent KD of MS2 coat protein [4]: 37.4 nM

Sequence: UUUAAUUUUUUUUUUUUACAAGCUUUUUGCUCGUCUUAUACAUGAGGAUCACCCAUGUGGGUGAAGGAUAAAUUAUC [JMF 26] (puzzle: Sensor v3, turn-off variant 2)
- apparent KD of MS2 coat protein [3]: 35.6 nM
- apparent KD of MS2 coat protein [1]: 36.2 nM
- apparent KD of MS2 coat protein [4]: 34.3 nM

Sequence: UUUAAUUUUUUUUUUUUACAAGCUUUUUGCUCGUCUUAUACAUGAGGAUCACCCAUGUGGGUGAGAAGUAAAUUAUC [JMF 48] (puzzle: Sensor v3, turn-off variant 2)
- apparent KD of MS2 coat protein [3]: 63.7 nM
- apparent KD of MS2 coat protein [1]: 14.6 nM
- apparent KD of MS2 coat protein [4]: 224 nM
